Experimental data as given in patent US7067474B1, “Agents for treating human illnesses based on β-catenin, and the production and use thereof” (Max-Delbruck-Centrum fur Molekulare Medizin, priority 1998, dated 2006).
Numbering of substitutions follows the chain as printed.

How the values were obtained:
[1] = target: T1, human β-catenin (Leu218-Leu781) mutant His 470 to alanine, Gal-4 activation domain fusion (human, UniProt P35222 218-781); assay: yeast 2-hybrid
T1 sequence: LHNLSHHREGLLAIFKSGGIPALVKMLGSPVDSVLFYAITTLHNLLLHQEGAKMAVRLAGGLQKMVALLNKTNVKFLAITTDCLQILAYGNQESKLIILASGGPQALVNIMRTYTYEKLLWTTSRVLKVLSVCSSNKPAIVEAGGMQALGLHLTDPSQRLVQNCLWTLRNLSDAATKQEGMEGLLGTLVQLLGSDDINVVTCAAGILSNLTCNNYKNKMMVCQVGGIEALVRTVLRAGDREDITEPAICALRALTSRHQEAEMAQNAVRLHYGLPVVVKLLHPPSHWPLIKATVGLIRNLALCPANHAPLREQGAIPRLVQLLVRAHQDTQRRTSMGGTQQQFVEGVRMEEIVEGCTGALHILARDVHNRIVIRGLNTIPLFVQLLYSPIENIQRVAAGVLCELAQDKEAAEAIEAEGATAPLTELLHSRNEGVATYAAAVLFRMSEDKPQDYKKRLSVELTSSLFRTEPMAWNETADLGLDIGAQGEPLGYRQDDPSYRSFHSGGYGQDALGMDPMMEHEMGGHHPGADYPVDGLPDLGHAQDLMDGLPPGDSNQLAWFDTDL
Description: (§1) 4. Preparation and testing of mutants of β-catenin modulating the interaction with LEF-1, APC, conductin or E-cadherin The mutagenesis of β-catenin in the armadillo repeats 3–8 was carried out by means of the "mutagenesis kit" of the company Clontech according to the producer's record and the mutants were checked by sequencing (FIG. 5). In all mutants the original amino acid was substituted by alanine. For analyzing the interactions the cDNA of human β-catenin (armadillo repeat 3 up to the C-terminal end of the protein) coding for the amino acids Leu218–Leu7 µl or its mutants was cloned into the fusion vector for the activation domain of Gal-4 (pGAD424, Clontech). The cDNA for the binding domains of the interaction partners was cloned into the Lex-A fusion vector BTM 116. To this end, the cDNA of LEF-1 for the amino acids 1–99, conductin for the amino acids Ala342–ARG465; of human APC for the amino acids His1012–Glu1215 (APC 15 amino acid repeats) and for the amino acids Ser1259Asp 1400 (APC 20 amino acid repeats) and E-cadherin for the amino acids Gin773–Asp884 (cytoplasmatic domain) were amplified with the respective primers PCR. The interaction of the Lex-A hybrids with β-catenin and its mutants was quantified by means of the β-galactosidase reporter activity in the yeast 2-hybrid system (report: "Matchmaker". Clontech) (Tab. 2 and FIG. 6).

[2] = target: T2, human β-catenin (Leu218-Leu781) mutant Arg 274 to alanine, Gal-4 activation domain fusion (human, UniProt P35222 218-781); assay: yeast 2-hybrid; - means 60-100% of the wild type interaction
T2 sequence: T1 sequence with R57A, A253H
Description: as §1

[3] = target: T3, human β-catenin (Leu218-Leu781) mutant Lys 292 to alanine, Gal-4 activation domain fusion (human, UniProt P35222 218-781); assay: as above
T3 sequence: T1 sequence with K75A, A253H
Description: as §1

[4] = target: T4, human β-catenin (Leu218-Leu781) mutant Lys 435 to alanine, Gal-4 activation domain fusion (human, UniProt P35222 218-781); assay: as above
T4 sequence: T1 sequence with K218A, A253H
Description: as §1

binding result [1]: no binding
binding result [2]: binds
binding result [3]: binds
binding result [4]: binds
B1: LEF-1 amino acids 1-99 fused to Lex-A (vector BTM 116) (other, UniProt P0A7C2 1-202, looked up)
chain: MKALTARQQEVFDLIRDHISQTGMPPTRAEIAQRLGFRSPNAAEEHLKALARKGVIEIVSGASRGIRLLQEEEEGLPLVGRVAAGEPLLAQQHIEGHYQVDPSLFKPNADFLLRVSGMSMKDIGIMDGDLLAVHKTQDVRNGQVVVARIDDEVTVKRLKKQGNKVELLPENSEFKPIVVDLRQQSFTIEGLAVGVIRNGDWLMPQLSGGGGGGDPELCATDEMIPFKDEGDPQKEKIFAEISHPEEEGDLADIKSSLVNESEIIPASNGHEVVRQAPSSQEPYHDKAREHPDEGKHPDGGL
notes: Order of the fusion follows the vector; also called LEF-1/TCF-4
